We go through two molecules from patent US20070172470A1, “Phosphatase regulation of nucleic acid transcription” (The Regents of the University of California, priority 2003, published 2007).

Changes are numbered by the printed parent chain. Names and notes keep the numbering of the source.

One series deals with T1, GST-SCP1 (Homo sapiens, UniProt Q9GZU7).
T1 construct: made in house
T1 sequence (Q9GZU7 1-261): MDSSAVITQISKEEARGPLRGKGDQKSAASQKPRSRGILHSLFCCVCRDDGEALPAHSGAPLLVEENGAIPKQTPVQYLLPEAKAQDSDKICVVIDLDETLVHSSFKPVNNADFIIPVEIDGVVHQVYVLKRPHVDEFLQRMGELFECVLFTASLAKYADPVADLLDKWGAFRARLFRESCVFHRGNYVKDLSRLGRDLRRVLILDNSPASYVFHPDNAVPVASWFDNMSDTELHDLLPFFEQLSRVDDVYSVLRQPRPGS
T1 sequence (P35269 1-517 partner): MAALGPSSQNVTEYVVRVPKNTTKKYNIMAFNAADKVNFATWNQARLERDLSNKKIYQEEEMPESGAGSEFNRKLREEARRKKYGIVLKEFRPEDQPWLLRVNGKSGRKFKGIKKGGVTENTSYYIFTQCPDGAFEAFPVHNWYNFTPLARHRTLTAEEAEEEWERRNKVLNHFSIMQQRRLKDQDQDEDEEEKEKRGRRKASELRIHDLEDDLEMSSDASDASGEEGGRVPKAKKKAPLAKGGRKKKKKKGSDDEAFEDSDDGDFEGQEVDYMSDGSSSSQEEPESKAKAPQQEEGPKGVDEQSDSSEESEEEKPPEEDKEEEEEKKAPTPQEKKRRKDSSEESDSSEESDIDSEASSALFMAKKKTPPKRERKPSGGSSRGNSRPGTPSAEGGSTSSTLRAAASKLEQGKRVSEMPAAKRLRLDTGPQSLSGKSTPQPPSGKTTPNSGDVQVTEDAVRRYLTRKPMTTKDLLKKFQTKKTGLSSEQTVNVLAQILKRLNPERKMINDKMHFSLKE
Description: Binding of RAP74 to GST-SCP1. As to conditions: not to GST.

The target of a further series is T2, SCP1 (Homo sapiens, UniProt Q9GZU7).
T2 construct: GST (N, cleaved yes); made in house
T2 sequence (Q9GZU7 1-260 isoform Q9GZU7-2): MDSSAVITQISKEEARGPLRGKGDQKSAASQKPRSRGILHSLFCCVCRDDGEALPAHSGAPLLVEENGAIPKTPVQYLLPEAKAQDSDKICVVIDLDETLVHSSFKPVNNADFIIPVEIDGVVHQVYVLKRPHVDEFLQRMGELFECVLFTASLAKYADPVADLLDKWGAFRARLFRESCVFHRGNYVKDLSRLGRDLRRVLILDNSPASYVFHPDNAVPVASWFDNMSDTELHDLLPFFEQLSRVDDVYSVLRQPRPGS
Description: Effect of RAP74 on CTD phosphatase activity of SCP1. In kind it is biochemical. The following applies: 7 pmol RAP74, 14.4 fmol RNAP IIO prepared by TFIIH. Here is the method: Increasing amounts of the indicated forms of SCP1 and SCP2 were assayed in the presence of 14.4 fmol RNAP. IIO prepared by TFIIH. Reactions were carried out in the presence and in the absence of 7 pmol RAP74.
(§1) CTD phosphatase assays utilizing RNAP IIO and GST-CTDo as substrate were performed as described previously (32) with minor modifications. Reactions were performed in 20 μl of CTD phosphatase buffer (50 mM Tris-HCl, pH 7.9, 10 mM MgCl2, 20% glycerol, 0.025% Tween 80, 0.1 mM EDTA, 5 mM DTT) in the presence of 20 mM KCl. Each reaction contained specified amounts of GST-CTDo and/or RNAP IIO and was carried out in the presence of 7 pmol RAP74. Reactions were initiated by the addition of FCP1 or SCP1 and incubated at 30° C. for 30 minutes. Assays were terminated by the addition of 5× Laemmli buffer, and RNAP II subunits and GST-CTD were resolved on a 5% SDS-PAGE gel. The gel images were developed by autoradiography and scanned by Molecular Dynamics Image Scanner Storm 860 in the phosphor screen mode. Data were quantitatively analyzed by ImageQuant software.

Series [1] is classed as biochemical. As to conditions: PNθP as substrate.
Series [2] relates to ElALuc, pGL3-Luc and Gal4-TATA-Luc constructs. In words: Luciferase reporter assay, basal promoter activity. In kind it is cell-based, human. The following applies: ElALuc, pGL3-Luc and Gal4-TATA-Luc constructs. From the text: (§2) Gal4-DNA binding domain-SCP1 fusion protein expression plasmids-were cotransfected in HEK293 cells with a Gal 4-TKLuc reporter plasmid and luciferase gene expression quantitated. In all panels, results of triplicate transfections are shown +/− SD. Data is expressed as fold-activation experimental/control). […] The indicated amounts of SCP1 or mutant SCP1 expression plasmids were cotransfected in HEK293 cells along with Gal 4-VP16 expression and Gal 4-TK-Luc reporter plasmids and luciferase activity was quantitated. […] The indicated receptor expression plasmids were cotransfected with their cognate promoter-reporter plasmids with or without SCP1 or mutant SCP1 expression plasmids. Cells were treated or untreated with receptor-specific ligands as described infra. […] The indicated concentrations of SCP1 and mutant SCP1 expression plasmids were cotransfected with LMX1 and E47 expression plasmids and the rat insulin 1 promoter-luciferase reporter gene. Luciferase activity was measured as described.
(§3) Tissue Culture and Transfections: Human 293, COS7 and CV1 cells were grown at 37° C. in DMEM supplemented with 10% normal calf serum (BRL). Sub-confluent cells were transfected in 6 well tissue culture dishes using Effectene (Qiagen) according to the manufacturer's instructions. Reporter and activator plasmids (100 ng each) and Flag SCP1 (80 ng) or its mutant were used per well. […]

Series [3] deals with T3 receptor activity on DR+4 TRE-TK-Luc reporter. Description: Luciferase reporter assay, ligand-activated T3 receptor. In kind it is cell-based, human. The following applies: 100 nM T3, DR+4 TRE-TK-Luc.
Description: as §2, §3
(In general: Reporter assays use an easily measured gene product as a stand-in for the process of interest.)

Series [4] deals with PPARγ receptor activity on PPARγ promoter response element. Description: Luciferase reporter assay, ligand-activated PPARγ receptor. In kind it is cell-based, human.
Description: as §2, §3

Series [5] deals with glucocorticoid receptor activity on GRE-TK-Luc construct. Description: Luciferase reporter assay, dexamethasone-stimulated glucocorticoid receptor. In kind it is cell-based, human. As to conditions: 100 nM dexamethasone.
Description: as §2, §3

Another series deals with T3, RNAP IIO (Bos taurus, UniProt G3MZY8).
T3 construct: Calf thymus RNAP IIA was purified; from tissue; host or cells: calf thymus
In words: CTD phosphatase assay with RNAP IIO as substrate. In kind it is biochemical, calf. The following applies: substrates prepared by MAPK2/ERK2. Here is the method: FIGS. 2C and 2D show a CTD phosphatase assay of FCP1 and SCP1 on GST-CTDo and RNAP IIO prepared by MAPK2/ERK2. Increasing amounts of FCP1 or GST-SCP1 214 were assayed in the presence of 75 fmol GST-CTDo (lanes 1-6), 75 fmol RNAP IIO (lanes 7-12), or 75 fmol GST-CTDo and 75. fmol RNAP IIO (lanes 13-18). Both GST-CTDo and RNAP IIO substrates were prepared by the in vitro phosphorylation of CKII-labeled GST-CTDa or RNAP IIA by MAPK2/ERK2. All reactions were carried out in the presence of 7 pmol RAP74. CTD dephosphorylation of both GST-CTDo and RNAP IIO is shown by the increase in mobility of GST-CTDo to GST-CTDa and subunit IIo to IIa, respectively. The difference in the intensity of radiolabeled GST-CTDoand that of radiolabeled subunit IIo is not a reflection of a difference in the amount of substrates present, but of the higher efficiency with which CKII incorporates radiolabeled phosphates onto the most C-terminal serine of GST-CTDa compared to subunit. IIa.
Increasing amounts of GST-SCP1 214 were assayed in the presence of 3.7 fmol RNAP IIO prepared by CTDK1/CTDK2, TFIIH, P-TEFb, MAPK2/ERK2 and Cdc2 kinase. All reactions were carried out in-the presence of 7 pmol. RAP74. CTD dephosphorylation of RNAP IIO isozymes. by qSTSCP1 214 is shown by an increase in mobility of subunit IIo to that of IIa. The results are summarized in the graph showing the percent of RNAP IIO remaining as a function of increasing SCP1 concentrations.
Preparation and Purification of ^32P-RNAP IIO Isozymess and ^32P-GST-CTDo: Calf thymus RNAP IIA was purified by the method of Hodo and Blatti (30) with modifications as described by Kang and Dahmus (31). Specific isozymes of ^32p-labeled RNAP IIO were prepared by phosphorylation at the most C-terminal serine (CKII site) in the largest subunit of purified RNAP IIA with recombinant CKII and […], followed by CTD phosphorylation in the presence of 2 mM ATP with either purified CTDK1/CTDK2, TFIIH, P-TEFb, recombinant MAPK2/ERK2 or recombinant Cdc2 kinase. The RNAP IIO isozymes were individually purified over a DE53 column with a step elution of 500 mM KCl (28). Because only the most C-terminal serine is labeled with ^32p and lies outside. the consensus repeat, dephosphorylation by CTD phosphatase results in an electrophoretic mobility shift in SDS-PAGE of subunit IIo to the position of subunit IIa without the loss of label. Similarly, ^32P-labeled GST-CTDo was prepared from GST-CTDa by CKII followed by MAPK2/ERK2. GST-CTDo was purified over a glutathione-agarose column with a step elution of 15 mM glutathione.
as §1

Series [6] relates to P19 mouse embryonic stem cells. In words: Neuronal differentiation of P19 cells. In kind it is cell-based. As to conditions: clonal P19 line, retinoic acid, selective medium. Here is the method:
P19 cells, C, differentiated GFP expressing P19 cells; D, differentiated SCP1-expressing P19 cells; F, differentiated REST/NRSF-expressing P19 cells. Numbers of NLC per field are shown. *p=0.001 compared to WT 19 cells; **p=0.008 compared to WT P19 cell using student's t-test.
P19 stably expressing REST/NRSF.
These cell lines were maintained in α-MEM/10%FBS with […] G418. To induce neuronal differentiation, P19 cells were allowed to aggregate in bacterial grade petri-dishes (Fisher) at a seeding density of 1×10^5cells/ml in the presence of 1×10^−6M all-trans retinoic acid. After 3 days of aggregation, cells were dissociated into single cells by 0.05% trypsin-0.53 mM EDTA (Gibco). Trypsin was removed by centrifugation and the cells were plated in 6 cm tissue culture dishes (Nunc). at a density of 1×10^5 cells/cm^2 in Neurobasal medium/N2 supplement (Invitrogen) in the presence or absence of 1 μg/ml fibronectin (Invitrogen). The cells were cultured for 5 days after which average cell numbers/field were determined. Cells were either lysed to prepare total RNA (Rneasy kit, Qiagen) or stained with TuJ1 antibody (Babco).
For immunostaining, cells were fixed for 10 mins with 4% paraformaldehyde. TuJ1 antibody was used at 1:2000 and secondary antibody used was FITC-conjuagated anti-mouse (1:3000).

Series [7] deals with Gal 4-TK-Luc reporter stimulated by Gal 4-VP16. In words: Luciferase reporter assay, Gal 4-VP16 stimulated gene expression. In kind it is cell-based, human. The following applies: HEK293 cells.
Description: as §2, §3

B1: RAP74: RAP74 subunit of TFIIF (protein)
chain: T1 sequence (P35269 1-517 partner)
Take B1: the “binding to GST-SCP1” value in the series with GST-SCP1 was “bound directly”. The “shift of the dose response curve for SCP1 catalyzed dephosphorylation of RNAP IIO to lower concentration” value with SCP1 was “approximately 10 fold”.

B2: mutant SCP1: D96E, D98N phosphatase-inactive dominant negative mutant of SCP1 261, SEQ ID NO:10 (protein)
chain: T2 sequence (Q9GZU7 1-260 isoform Q9GZU7-2) with D95E, D97N
modifications: Drosophila
Take B2: the phosphatase activity result in series [1] was “inactive”. The “increase of luciferase activity” value in [2] was 1.5- to 6 fold. Besides, in series [3], the “ligand-activated T3 receptor activity” value is recorded as “enhanced”. The “ligand-activated PPARγ receptor activity” value in [4] is recorded as “enhanced”. The “dexamethasone-stimulated glucocorticoid receptor activity” value in series [5] is reported as “significantly enhanced”. Further, the “CTD phosphatase activity on GST-CTDo and RNAP IIO” value with RNAP IIO is recorded as “lacked activity on either substrate”. In addition, the “increase of the extent of precursor differentiation into neurons” value in series [6] is more than 2 fold. The “enhancement of Gal 4-VP16 stimulated activity” value in [7] is listed as “about 2 fold”.
